# From patent US20240141048A1 (DYNAMICURE BIOTECHNOLOGY, published 2024)
# T1: His-tagged human VISTA extracellular domain protein (in house) (human, UniProt Q9H7M9 33-194)
# T1 construct: also called human VISTA ECD; hVISTA; not shown: His tag
# T1 sequence: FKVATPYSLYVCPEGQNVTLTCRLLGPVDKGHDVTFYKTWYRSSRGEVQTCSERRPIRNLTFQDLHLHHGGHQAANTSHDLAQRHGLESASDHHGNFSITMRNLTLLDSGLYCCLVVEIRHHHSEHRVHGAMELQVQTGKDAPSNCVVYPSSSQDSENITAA
# T2: His-tagged mouse VISTA extracellular domain protein (in house) (mouse, UniProt Q9D659 33-191)
# T2 construct: extracellular domain; also called mouse VISTA ECD; mVISTA; not shown: His tag
# T2 sequence (looked up): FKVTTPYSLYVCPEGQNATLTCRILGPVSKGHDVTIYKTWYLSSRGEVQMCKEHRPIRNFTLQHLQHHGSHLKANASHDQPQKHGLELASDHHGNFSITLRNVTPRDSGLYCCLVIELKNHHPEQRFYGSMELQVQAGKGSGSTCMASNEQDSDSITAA
# T3: human VISTA full length on Jurkat cells (human, UniProt Q9H7M9 33-311)
# T3 construct: also called Jurkat-hVISTA
# T3 sequence: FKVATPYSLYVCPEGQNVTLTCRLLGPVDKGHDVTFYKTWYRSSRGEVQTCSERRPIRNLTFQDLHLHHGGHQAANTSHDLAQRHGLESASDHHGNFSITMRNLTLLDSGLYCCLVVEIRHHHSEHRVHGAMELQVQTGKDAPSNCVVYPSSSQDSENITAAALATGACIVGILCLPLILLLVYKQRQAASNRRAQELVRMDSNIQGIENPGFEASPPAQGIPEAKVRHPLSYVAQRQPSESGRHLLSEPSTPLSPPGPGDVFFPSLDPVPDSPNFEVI
# T4: mouse VISTA full length on Jurkat cells (mouse, UniProt Q9D659 33-308)
# T4 construct: whole, on cells; also called Jurkat-mVISTA
# T4 sequence (looked up): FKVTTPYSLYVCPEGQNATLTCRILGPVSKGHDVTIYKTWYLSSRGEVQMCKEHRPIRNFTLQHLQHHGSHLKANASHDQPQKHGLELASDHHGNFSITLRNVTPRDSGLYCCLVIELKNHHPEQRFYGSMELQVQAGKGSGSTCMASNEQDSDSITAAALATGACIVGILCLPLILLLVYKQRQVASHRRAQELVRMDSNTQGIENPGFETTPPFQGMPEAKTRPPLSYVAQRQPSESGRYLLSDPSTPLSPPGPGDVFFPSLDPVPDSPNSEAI
# Key:
# [1] = molecular target: T1, His-tagged human VISTA extracellular …; assay: ELISA, hybridoma supernatant on coated human VISTA ECD (2 µg/ml)
# Procedure: (§1) 50 μl of hybridoma supernatant was incubated with human VISTA ECD (2 μg/ml), mouse VISTA ECD (2 μg/mL), cynomolgus VISTA (2 μg/mL), or negative mouse IgG1 control coated on 96 well ELISA plates. Mouse anti-VISTA antibodies were detected by anti-mouse IgG-HRP (Jackson ImmunoResearch, Cat. # 615035214).
# [2] = molecular target: T2, His-tagged mouse VISTA extracellular …; assay: ELISA, hybridoma supernatant on coated mouse VISTA ECD (2 µg/mL)
# Procedure: as §1
# [3] = molecular target: T3, human VISTA full length on Jurkat cells; assay: flow cytometry, hybridoma supernatant on Jurkat cells expressing human VISTA
# Procedure: (§2) Human and mouse VISTA expressing Jurkat cells were cultured in RPMI1640 with 10% FBS. Cells were seeded into a 96 well plate at 1×10⁵ cells/well. Then the cells were incubated with anti-VISTA hybridoma supernatants for 30 minutes at 4° C. […] After washing with FACS buffer, the cells were incubated with Alexa Fluor 647 conjugated anti-mouse IgG(H+L)(1 μg/ml) (Jackson ImmunoResearch, Cat. #61505214) for 30 minutes at 4° C. After washing with FACS buffer twice, the samples were run in a NovoCyte Flow Cytometer (Agilent). Data was analyzed using the NovoExpress Software.
# [4] = molecular target: T4, mouse VISTA full length on Jurkat cells; assay: flow cytometry, hybridoma supernatant on Jurkat cells expressing mouse VISTA
# Procedure: as §2
# [5] = molecular target: human VISTA extracellular transmembrane-CD3zeta chimera on Jurkat-nfkb-GFP reporter cells (human, UniProt P20963 52-164); assay: cell-based or functional assay
Binder,binding result [1],binding result [2],binding result [3],binding result [4],percentage of activated Jurkat-NFKb-GFP/hVISTA-hCD3z cells in the presence of OKT3 (3 ng/ml) [5] [%]
"anti-VISTA antibody 9F9 (antibody, V domains shown, Mouse monoclonal) VH: QVQFQQSGAELARPGASVKLSCKASGYTFTGYWMQWVKQRPGQGLEWIGAIYPGDGDTRYSQKFKGKVTLTADKSSSTAYMQLSSLASEDSAVYYCARRDYGAWFAYWGQGTLVTVSA VL: DIKVTQSPSSMYASLGERVTITCKASQDINSYLSWFQQKPGKSPKTLIYRANRLVDGVPSRFSGSGSGQDYSLTISSLDYEDMGIYYCLQYDEFPYTFGGGTKLEIK",binds,binds,binds,binds,> 60
"anti-VISTA antibody 17E9 (antibody, IgG1, V domains shown, Mouse monoclonal; Tested as hybridoma supernatant and as recombinant mIgG1) VH: QVQLQQSGAELMKPGASVKISCTATGYTFSSCWIEWVKQRPGHGLEWLGEILPGSDYTNYNEKFKDKATFTADTSSDTAYMQLSSLTSEDSAVYYCARRPPGWYFDVWGAGTAVTVSS VL: DIVMTQSHKFMSTSVGDRVSITCKASQDVSTDIAWYQQKPGQSPKLLIYSASYRFTGVPDRFTGSGSGTDFTFTISSVQAEDLAVYYCQHQYSTPWTFGGGTKLDIK",binds,binds,binds,binds,–
"anti-VISTA antibody 16A1 (antibody, IgG1, V domains shown, Mouse monoclonal; Tested as hybridoma supernatant and as recombinant mIgG1) VH: QVQLQQSGAELMKPGASVKISCKATGYTFSSSWIEWVKQRPGHGLEWIGEIFPGSGSLNFNEKFKGKATFTADTSSNTAYLQLSSLTSDDSAVYYCARRPPGWFFDVWGAGTTVTVSS VL: DIVMTQSHKFMSTSVGDRVSITCKASQDVTTDVAWYQQKPGQSPKLLIYSASYRYTGVPDRFTGSGSGTDFTFTISSVQAEDLTVYYCQQHYSSPWTFGGGTKLEIK",binds,–,binds,–,–
"anti-VISTA antibody 20E4 (antibody, IgG1, V domains shown, Mouse monoclonal; Tested as hybridoma supernatant and as recombinant mIgG1) VH: QVQLQQSGAELMKPGASVKISCKATGYTFSSSWVEWVRQRPGHGLEWIGEIFPGSGSTHYNEKFKGKATFTADTSSNTAYLQLSSLTSDDSAVYYCARRPPGWFFDVWGAGTTVTVSS VL: DIVMTQSHKFMSTSVGDRVSITCKASQDVSTDVAWYQQKPGQSPKLLIYSASYRYTGVPDRFTGSGSGTDFTFTISSVQAEDLAVYYCQQHYSTPWTFGGGTKLEIK",binds,binds,binds,binds,–
"anti-VISTA antibody 15D11 (antibody, V domains shown, Mouse monoclonal from hybridoma) VH: EVQLQQSGSELVKAGASVKLSCTASGFKIKDTFIHWVKQRPEQGLDWIGRIDPANGNSKYDPKFQGKATITADTSSNTAYLQLSSLTSEDTAVYYCARWPSNWEAMDYWGQGTSVTVSS VL: QIVLTQSPAIMSASPGEKVTMTCSASSSVSYMYWYQQKPGSSPRLLIYDTSNLASGVPFRFSGSGSGTSYSLTISRMEAEDAATYYCQQWISYPLTFGTGTKLELK",binds,binds,–,–,≤ 60
